Earlier results in PMC7590900.

Molecular target: CXCR7 (Homo sapiens) (UniProt P25106)
Sequence of UniProt P25106 (P25106 whole entry): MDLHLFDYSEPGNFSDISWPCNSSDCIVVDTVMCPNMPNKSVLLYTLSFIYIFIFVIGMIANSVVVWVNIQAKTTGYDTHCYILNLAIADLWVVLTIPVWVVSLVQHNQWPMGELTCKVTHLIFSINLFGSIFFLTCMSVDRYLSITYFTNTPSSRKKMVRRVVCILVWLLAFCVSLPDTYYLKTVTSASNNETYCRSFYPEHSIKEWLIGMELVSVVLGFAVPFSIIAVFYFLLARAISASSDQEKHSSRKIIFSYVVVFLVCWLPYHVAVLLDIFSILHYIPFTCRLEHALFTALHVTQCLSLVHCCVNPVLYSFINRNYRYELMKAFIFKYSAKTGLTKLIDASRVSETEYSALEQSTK

- Kd: 3.5 nM
Substance: CXCL11 (from UniProt O14625)
